Results taken from paper PMC10397247.

Key:
P3bHq = target: T1, P3bHq; assay: two-hybrid library CCNG1;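 note: natural log of median RNA to DNA barcode read ratio; higher means stronger binding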
T1 chain: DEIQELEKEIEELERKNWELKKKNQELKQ

P9bHq = target: T2, P9bHq; assay: two-hybrid library CCNG1;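 note: natural log of median RNA to DNA barcode read ratio; higher means stronger binding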
T2 chain: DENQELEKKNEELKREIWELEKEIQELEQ

P5bHq = target: T3, P5bHq; assay: two-hybrid library CCNG1;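 note: natural log of median RNA to DNA barcode read ratio; higher means stronger binding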
T3 chain: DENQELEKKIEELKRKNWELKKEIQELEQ

P8bHq = target: T4, P8bHq; assay: two-hybrid library CCNG1;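 note: natural log of median RNA to DNA barcode read ratio; higher means stronger binding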
T4 chain: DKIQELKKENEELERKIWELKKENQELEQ

P1bHq = target: T5, P1bHq; assay: two-hybrid library CCNG1;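 note: natural log of median RNA to DNA barcode read ratio; higher means stronger binding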
T5 chain: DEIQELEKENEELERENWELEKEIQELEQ

P12bHq = target: T6, P12bHq; assay: two-hybrid library CCNG1;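 note: natural log of median RNA to DNA barcode read ratio; higher means stronger binding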
T6 chain: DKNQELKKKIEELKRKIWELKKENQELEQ

P2bHq = target: T7, P2bHq; assay: two-hybrid library CCNG1
T7 chain: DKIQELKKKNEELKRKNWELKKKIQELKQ

P6bHq = target: T8, P6bHq; assay: two-hybrid library CCNG1
T8 chain: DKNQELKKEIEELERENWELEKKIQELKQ

P4bHq = target: T9, P4bHq; assay: two-hybrid library CCNG1
T9 chain: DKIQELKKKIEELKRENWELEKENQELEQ

P7bHq = target: T10, P7bHq; assay: two-hybrid library CCNG1
T10 chain: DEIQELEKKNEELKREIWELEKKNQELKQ

P2-AA-1HAA-H = target: T11, P2-AA-1HAA-H; assay: two-hybrid library CCmax; details: mean of both orientations
T11 chain: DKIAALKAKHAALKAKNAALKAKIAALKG

P2-AA = target: T12, P2-AA; assay: two-hybrid library CCmax; details: mean of both orientations
T12 chain: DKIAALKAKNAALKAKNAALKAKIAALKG

P2-AA-1HAA-T = target: T13, P2-AA-1HAA-T; assay: two-hybrid library CCmax; details: mean of both orientations
T13 chain: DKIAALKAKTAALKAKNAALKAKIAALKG

P2-AA-1HAA-I = target: T14, P2-AA-1HAA-I; assay: two-hybrid library CCmax; details: mean of both orientations
T14 chain: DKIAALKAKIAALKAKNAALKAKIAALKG

P2-AA-1HAA-D = target: T15, P2-AA-1HAA-D; assay: two-hybrid library CCmax; details: mean of both orientations
T15 chain: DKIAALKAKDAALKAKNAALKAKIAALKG

P2-AA-1HAA-E = target: T16, P2-AA-1HAA-E; assay: two-hybrid library CCmax; details: mean of both orientations
T16 chain: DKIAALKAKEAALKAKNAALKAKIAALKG

P2-AA-1HAA-V = target: T17, P2-AA-1HAA-V; assay: two-hybrid library CCmax; details: mean of both orientations
T17 chain: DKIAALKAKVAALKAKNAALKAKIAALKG

P2-AA-1HAA-R = target: T18, P2-AA-1HAA-R; assay: two-hybrid library CCmax; details: mean of both orientations
T18 chain: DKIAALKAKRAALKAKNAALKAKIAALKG

P2-AA-1HAA-S = target: T19, P2-AA-1HAA-S; assay: two-hybrid library CCmax; details: mean of both orientations
T19 chain: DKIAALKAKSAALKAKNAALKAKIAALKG

| Binder | interaction score (P3bHq) | interaction score (P9bHq) | interaction score (P5bHq) | interaction score (P8bHq) | interaction score (P1bHq) | interaction score (P12bHq) | interaction score (P2bHq) | interaction score (P6bHq) | interaction score (P4bHq) | interaction score (P7bHq) | interaction score (P2-AA-1HAA-H) | interaction score (P2-AA) | interaction score (P2-AA-1HAA-T) | interaction score (P2-AA-1HAA-I) | interaction score (P2-AA-1HAA-D) | interaction score (P2-AA-1HAA-E) | interaction score (P2-AA-1HAA-V) | interaction score (P2-AA-1HAA-R) | interaction score (P2-AA-1HAA-S) |
| --- | --- | --- | --- | --- | --- | --- | --- | --- | --- | --- | --- | --- | --- | --- | --- | --- | --- | --- | --- |
| DKNQELKKKIEELKRKIWELKKENQELEQ [P12bHq] | -0.851 | 1.15 | -0.597 | -0.489 | -1.45 | -0.763 | -0.425 | 0.286 | 0.195 | 0.639 |  |  |  |  |  |  |  |  |  |
| DEIAALEAELAALEAENAALEAEIAALEG [P1-AA-1HAA-L] |  |  |  |  |  |  |  |  |  |  | 1.95 | 1.84 | 1.93 | 1.62 | 1.71 | 1.89 | 1.87 | 1.98 | 1.77 |
